Assay results reported in patent US20180079822A1 (UNITED STATES OF AMERICA AS REPRESENTED BY THE SECRETARY OF …, published 2018).
Positions count from the first letter of the chain named. Names and notes keep the numbering of the source.

B1: M24E (VHH)
VHH: DVQLQASGGGLVQAGGSLRLSCAASGSTFSIKHHGWYRRAPGNQREWVAGISSENITNVAEAVKGRFTISRDNAKNTVYLQMNSLKVEDTAVYYCYAQDNDYRFLHRFWGQGTQVTVSL
notes: also called bt-M24E; anti-CD20 sdAb M24E
B2: M28C (VHH)
VHH: B1 VHH with S52N, E61G, Y94F
notes: also called bt-M28C; anti-CD20 sdAb M28C
B3: M112D (VHH)
VHH: B1 VHH with G15E, S30G, D101N
notes: also called bt-M112D; anti-CD20 sdAb M112D

Each binder was assayed against T1, Hoc (T4 phage, UniProt P18056 1-376, limits assumed) (assay: SPR).
T1 construct: Purified Hoc used as control for the fusion partner; also called outer capsid protein Hoc of T4 phage
T1 sequence (P18056 whole entry, the tested form may be a part): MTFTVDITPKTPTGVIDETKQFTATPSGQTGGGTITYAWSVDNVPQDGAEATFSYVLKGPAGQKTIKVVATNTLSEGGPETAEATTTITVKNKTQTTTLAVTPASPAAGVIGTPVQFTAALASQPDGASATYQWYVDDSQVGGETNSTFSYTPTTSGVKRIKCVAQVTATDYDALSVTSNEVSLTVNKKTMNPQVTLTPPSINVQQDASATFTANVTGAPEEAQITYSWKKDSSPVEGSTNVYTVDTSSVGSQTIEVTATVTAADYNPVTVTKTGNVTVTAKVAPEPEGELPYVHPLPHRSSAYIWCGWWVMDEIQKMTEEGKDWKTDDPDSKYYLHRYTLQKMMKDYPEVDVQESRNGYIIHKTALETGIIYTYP

Point of comparison: B3, Kd 2100 nM. Against it:
- B1 — 9.1-fold lower, 230 nM
- B2 — 2.5-fold higher, 5300 nM

Point of comparison: B3, koff 0.32 s⁻¹. Against it:
- B1 — 7-fold lower, 0.046 s⁻¹
- B2 — within 1.5-fold, 0.36 s⁻¹

Point of comparison: B2, kon 68000 M⁻¹ s⁻¹. Against it:
- B1 — 2.9-fold higher, 200000 M⁻¹ s⁻¹
- B3 — 2.2-fold higher, 150000 M⁻¹ s⁻¹

The binders below were run against T2, CD20-Hoc fusion protein (human; T4 phage, UniProt P11836 142-187; P18056 1-376, limits assumed) (assay: SPR).
T2 construct: also called Hoc-CD20; Hoc-CD
T2 sequence (P11836 142-187, tags or fused parts left off): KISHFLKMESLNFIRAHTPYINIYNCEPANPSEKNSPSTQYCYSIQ

Point of comparison: B1, Kd 5.7 nM. Against it:
- B2 — 2.6-fold higher, 15 nM
- B3 — 4.6-fold higher, 26 nM

Point of comparison: B1, koff 0.0043 s⁻¹. Against it:
- B2 — within 1.5-fold, 0.0045 s⁻¹
- B3 — 1.6-fold higher, 0.007 s⁻¹

Point of comparison: B3, kon 280000 M⁻¹ s⁻¹. Against it:
- B1 — 2.7-fold higher, 750000 M⁻¹ s⁻¹
- B2 — within 1.5-fold, 300000 M⁻¹ s⁻¹

Each binder was assayed against T2, CD20-Hoc fusion protein (assay: SPR binding kinetics).

Point of comparison: B2, “differential binding to CD20-Hoc fusion against Hoc” value ~1000 fold. Against it:
- B1 — the same, ~1000 fold
- B3 — lower, ~100 fold

The binders below were run against T2, CD20-Hoc fusion protein (assay: SPR; KD on Hoc divided by KD on Hoc-CD20).

Point of comparison: B3, “Ratio Hoc KD/Hoc-CD20 KD” value 81 ratio. Against it:
- B1 — lower, 40 ratio
- B2 — higher, 353 ratio
